The results in this text go back to patent publication US20210155689A1 (SHANGHAI PHARMAEXPLORER, published 2021).

Test [1] concerns the target T1, monkey LAG-3 on cells (HEK293-cLAG-3 stable cell line) (monkey, UniProt P18627 24-525 (human entry)).
T1 construct: Full-length monkey (Chinese monkey) LAG-3 gene expressed on HEK293 cells
T1 chain: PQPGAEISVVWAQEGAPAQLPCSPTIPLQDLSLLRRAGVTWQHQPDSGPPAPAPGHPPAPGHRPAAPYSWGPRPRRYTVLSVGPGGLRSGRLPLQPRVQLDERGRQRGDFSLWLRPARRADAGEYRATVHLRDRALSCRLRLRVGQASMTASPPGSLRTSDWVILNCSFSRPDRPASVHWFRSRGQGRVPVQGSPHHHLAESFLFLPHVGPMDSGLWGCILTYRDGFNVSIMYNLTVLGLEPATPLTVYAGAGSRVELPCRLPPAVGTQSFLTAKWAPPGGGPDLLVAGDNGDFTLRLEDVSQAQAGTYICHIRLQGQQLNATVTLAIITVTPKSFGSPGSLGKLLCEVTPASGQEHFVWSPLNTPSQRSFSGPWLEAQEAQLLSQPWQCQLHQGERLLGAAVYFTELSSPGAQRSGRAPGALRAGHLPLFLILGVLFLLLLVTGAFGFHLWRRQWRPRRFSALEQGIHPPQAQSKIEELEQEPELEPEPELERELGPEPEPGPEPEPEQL
Nature of the test: FACS, HEK293-cLAG-3, antibody 8.000 nM. The text has this:
The pIRES plasmid with the monkey-derived full-length gene was transfected into the HEK293 cell line to construct a HEK293 stable cell line containing monkey LAG-3 (herein referred to as HEK293-cLAG-3 stable cell line). The HEK293-hLAG-3 stable cell line and HEK293-cLAG-3 stable cell line were expanded in a T-75 cell culture flask to a 90% confluence. The medium was aspirated, and the cells were washed with HBSS (Hanks' Balanced Salt Solution) 1-2 times, then treated with a enzyme-free cell dissociation fluid (Versene solution: Life technology) and the cells were collected. The cells were washed with HBSS buffer for 1-2 times. After counted, the cells were diluted with HBSS to 1-2×10⁶ cells per ml, added with 1% goat serum blocking solution, incubated on ice for 20-30 minutes, and then washed with HBSS for 2 times by centrifugation. The collected cells were suspended in the FACS buffer (HBSS+1% BSA) to 2×10⁶ cells/ml, added as 100 microliters per well to a 96-well FACS reaction plate, added with 100 microliters per well of the antibody sample to be tested, incubated on ice for 1-2 hours. The plate was washed twice with the FACS buffer by centrifugation, added with 100 microliters of fluorescent (Alexa 488)-labeled secondary antibodies per well, and incubated on ice for 0.5-1.0 hours. The plate was washed 2-3 times with FACS buffer by centrifugation, added with 100 μl fixative solution (4% Paraformaldehyde) per well to suspend the cells. 5-10 minutes later, it was washed 1-2 times with FACS buffer by centrifugation. The cells were suspended with 100 microliters of FACS buffer, FACS (FACSCalibur, BD) was used for detection and the results were analyzed.
(In general: Flow cytometry measures light scatter and fluorescence of single cells or particles in a stream.)

In test [2] the target is T2, human LAG-3 on cells (HEK293-hLAG-3 stable cell line) (human, UniProt P18627 23-525).
T2 sequence: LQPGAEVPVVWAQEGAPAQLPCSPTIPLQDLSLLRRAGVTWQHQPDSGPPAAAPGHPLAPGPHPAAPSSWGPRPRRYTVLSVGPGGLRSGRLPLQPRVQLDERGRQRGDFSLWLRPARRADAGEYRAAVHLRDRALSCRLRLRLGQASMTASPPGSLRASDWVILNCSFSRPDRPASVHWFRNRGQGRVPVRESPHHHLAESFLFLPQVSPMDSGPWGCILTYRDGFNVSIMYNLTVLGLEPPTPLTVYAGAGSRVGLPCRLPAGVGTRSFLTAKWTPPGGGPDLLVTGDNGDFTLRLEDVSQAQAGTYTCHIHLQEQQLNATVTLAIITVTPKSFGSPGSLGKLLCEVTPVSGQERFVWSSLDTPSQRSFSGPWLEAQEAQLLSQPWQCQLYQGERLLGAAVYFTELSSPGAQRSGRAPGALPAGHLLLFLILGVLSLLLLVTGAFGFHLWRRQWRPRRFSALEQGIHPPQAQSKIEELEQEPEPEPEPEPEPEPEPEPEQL
Nature of the test: cell-based or functional assay.

B1: 405B8H3 mouse-human chimeric antibody (antibody, V domains shown)
VH: QVQLQQSGAELVRPGASVTLSCKASGYTFTDYEMHWVKQTPVHGLEWIGATDPETGNSAYNQKFKGKAIMTADKSSSTAYMELRSLTSEDSAVYYCISTGWNDWGQGTSLTVSS
VL: DIKMTQSPSSMYASLGERVTITCKASQDINSYLSWFQQKPGKSPKTLIYRADRLLDGVPSRFSGSGSGQDYSLTISSLEYGDMGIYYCLQYDEFPYTFGGGTKLEIK
notes: also called mAb103-405B8H3
Molecule B1 registered a Mean fluorescence intensity in test [1] of 69.3. Also, in test [2], the “IL-2 production, antigen-specific T lymphocyte stimulation test, 0.016 ug/ml, N = 1” value (shortened to “IL-2 production … 0.016 ug/ml, N = 1”) worked out at 366 pg/mL; the “IL-2 production, antigen-specific T lymphocyte stimulation test, 0.016 ug/ml, N = 2” value (“IL-2 production … 0.016 ug/ml, N = 2” below) amounted to 420 pg/mL; the “IL-2 production, antigen-specific T lymphocyte stimulation test, 0.08 ug/ml, N = 1” value (from here on “IL-2 production … 0.08 ug/ml, N = 1”) was found to be 666 pg/mL; the “IL-2 production, antigen-specific T lymphocyte stimulation test, 0.08 ug/ml, N = 2” value (from here on “IL-2 production … 0.08 ug/ml, N = 2”) amounted to 559 pg/mL. For the same molecule, in test [2], the “IL-2 production, antigen-specific T lymphocyte stimulation test, 0.4 ug/ml, N = 1” value (from here on “IL-2 production … 0.4 ug/ml, N = 1”) stood at 883 pg/mL; the “IL-2 production, antigen-specific T lymphocyte stimulation test, 0.4 ug/ml, N = 2” value (“IL-2 production … 0.4 ug/ml, N = 2” for short) is 986 pg/mL; the “IL-2 production, antigen-specific T lymphocyte stimulation test, 2 ug/ml, N = 1” value (“IL-2 production … 2 ug/ml, N = 1” for short) turned out to be 876 pg/mL; the “IL-2 production, antigen-specific T lymphocyte stimulation test, 2 ug/ml, N = 2” value (shortened to “IL-2 production … 2 ug/ml, N = 2”) was 825 pg/mL. Further, in test [2], the “IL-2 production, antigen-specific T lymphocyte stimulation test, 10 ug/ml, N = 1” value (“IL-2 production … 10 ug/ml, N = 1” below) came to 770 pg/mL and the “IL-2 production, antigen-specific T lymphocyte stimulation test, 10 ug/ml, N = 2” value (shortened to “IL-2 production … 10 ug/ml, N = 2”) was 789 pg/mL.

B2: 409D4E10 mouse-human chimeric antibody (antibody, V domains shown)
VH: QVQLQQSGAELVRPGASVTLSCKASGNTFTDYEMHWVKQTPVHGLEWIGATDPETDNTAYNQKFKGKAILTTDKSSSTAYMELRSLTSEDSAVYYCITSGWNDWGQGTSLTVSS
VL: DIKMTQSPSSMYASLGERVTITCKASQDINSYLSWFQQKPGKSPKTLIYRANRLLDGVPSRFSGSGSGQDYSLTISSLEYEDMGIYYCLQYNEFPYTFGGGTKLEIK
notes: also called mAb112-409D4E10
B2: the Mean fluorescence intensity in test [1] came to 61.5. Moreover, in test [2], the “IL-2 production … 0.016 ug/ml, N = 1” value worked out at 384 pg/mL; the “IL-2 production … 0.016 ug/ml, N = 2” value was 334 pg/mL; the “IL-2 production … 0.08 ug/ml, N = 1” value turned out to be 498 pg/mL; the “IL-2 production … 0.08 ug/ml, N = 2” value came out at 534 pg/mL. Besides, in test [2], the “IL-2 production … 0.4 ug/ml, N = 1” value was 804 pg/mL; the “IL-2 production … 0.4 ug/ml, N = 2” value amounted to 678 pg/mL; the “IL-2 production … 2 ug/ml, N = 1” value came out at 825 pg/mL; the “IL-2 production … 2 ug/ml, N = 2” value came to 673 pg/mL. Also, in test [2], the “IL-2 production … 10 ug/ml, N = 1” value is 890 pg/mL and the “IL-2 production … 10 ug/ml, N = 2” value came out at 801 pg/mL.

B3: 409B11E12 mouse-human chimeric antibody (antibody, V domains shown)
VH: QVQLQQSGAELVRPGASVTLSCKASGYTFTDYEMHWVKQTTVHGLEWIGATDPETSYSAYNQKFKGKAILTADKSSSTAYMELRSLTSEDSAVYYCIATGWNDWGQGTSLTVSS
VL: DLKMTQSPSSMYASLGERVTITCKASQDINSYLSWFQQKPGKSPKTLIYRANRLLDGVPSRFSGSGSGQDYSLTISSLEYEDMGIYYCLQYDEFPYTFGGGTKLEIK
notes: also called mAb104-409B11E12
With B3, the Mean fluorescence intensity in test [1] turned out to be 73.1. Also, in test [2], the “IL-2 production … 0.016 ug/ml, N = 1” value was found to be 402 pg/mL; the “IL-2 production … 0.016 ug/ml, N = 2” value was determined as 433 pg/mL; the “IL-2 production … 0.08 ug/ml, N = 1” value stood at 525 pg/mL; the “IL-2 production … 0.08 ug/ml, N = 2” value is 555 pg/mL. In test [2], the “IL-2 production … 0.4 ug/ml, N = 1” value was 835 pg/mL; the “IL-2 production … 0.4 ug/ml, N = 2” value is 954 pg/mL; the “IL-2 production … 2 ug/ml, N = 1” value was 914 pg/mL; the “IL-2 production … 2 ug/ml, N = 2” value was 915 pg/mL. Moreover, in test [2], the “IL-2 production … 10 ug/ml, N = 1” value is 671 pg/mL and the “IL-2 production … 10 ug/ml, N = 2” value turned out to be 795 pg/mL.
